The values that follow come from patent US20220089735A1 (SUZHOU KANOVA BIOPHARMACEUTICAL, published 2022).

Assay [1] addresses T1, mouse B7S1-his (R&D system, cat#4206-B7-100) (mouse, UniProt Q7TSP5 29-256).
T1 construct: Bought protein; not shown: His tag
T1 sequence (looked up): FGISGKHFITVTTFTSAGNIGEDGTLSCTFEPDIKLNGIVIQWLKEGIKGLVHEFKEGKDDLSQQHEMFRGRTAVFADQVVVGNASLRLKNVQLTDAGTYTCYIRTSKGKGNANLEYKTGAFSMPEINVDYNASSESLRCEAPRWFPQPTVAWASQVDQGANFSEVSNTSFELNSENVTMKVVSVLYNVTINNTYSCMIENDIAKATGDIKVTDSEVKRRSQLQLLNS
Description: ELISA, antigen coated on plate. The method, then: (§1) In order to test humanized anti-B7S1 antibody binding affinity, an ELISA analysis was carried out. 2 μg/ml of human B7S1-his (Sinobiological, cat#10738-H08H-100), mouse B7S1-his (R&D system, cat#4206-B7-100), and cynomolgus B7S1 extracellular domain (Leu25-Ser259, NCBI Reference Sequence: XP_005542249.1) were coated on MaxiSorp 96-well plates (NUNC, 449824) in 0.5M carbonate/bicarbonate buffer, pH9.6, incubated at 4° C. over night. Coated plates were blocked with skimmed milk (5%, in PBST) for 1h. Humanized anti-B7S1 antibodies were diluted and added to the plates, and incubated for 2h at room temperature. Washed three times with PBST (lx PBS with 0.05% tween-20) to eliminate un-bounded antibodies. Goat anti-Human IgG-HRP (Easybio, BE0122, 1:5000 in PBS) was added and incubated for 1h. Washed three times with PBST (lx PBS with 0.05% tween-20) to eliminate un-bounded antibodies. TMB (eBioscience, 00-4201-56) was added (50 ul/well) for color rendering and stopped by 2N H₂SO₄ (50 ul/well). Optical density was measured at 450 nm and 570 nm.
For orientation: In an ELISA, binding on a coated surface is turned into a signal by an enzyme label.

Assay [2] has as its target T2, human B7S1-his (Sinobiological, cat#10738-H08H-100) (human, UniProt Q7Z7D3 25-259).
T2 construct: extracellular domain; Bought protein; also called human B7S1 extracellular domain; B7-H4; not shown: His tag
T2 sequence (looked up): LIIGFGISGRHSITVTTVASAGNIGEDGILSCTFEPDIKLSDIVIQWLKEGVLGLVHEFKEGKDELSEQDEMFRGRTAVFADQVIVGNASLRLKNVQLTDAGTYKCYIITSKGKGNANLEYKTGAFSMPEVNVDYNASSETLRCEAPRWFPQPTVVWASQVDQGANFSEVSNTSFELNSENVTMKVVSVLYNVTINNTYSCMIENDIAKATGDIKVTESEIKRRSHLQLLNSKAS
Description: ELISA, antigen coated on plate. The method, then: as §1

The target of assay [3] is T3, cynomolgus B7S1 extracellular domain (Leu25-Ser259, NCBI Reference Sequence: XP_005542249.1) (cynomolgus monkey).
T3 construct: range 25-259; No tag or fusion partner is stated; also called cynomolgus monkey B7S1
Briefly: ELISA, antigen coated on plate. On the procedure:
as §1

For assay [4], the target named is T4, human B7S1 (NCBI Reference Sequence: NP_078902.2) expressed on a cell surface (human, UniProt Q7Z7D3 25-282).
T4 construct: whole, on cells; the assay field says which cells were used; also called B7S1 overexpressed on cell surface; B7S1 transfected BaF3 cell line
T4 sequence (looked up): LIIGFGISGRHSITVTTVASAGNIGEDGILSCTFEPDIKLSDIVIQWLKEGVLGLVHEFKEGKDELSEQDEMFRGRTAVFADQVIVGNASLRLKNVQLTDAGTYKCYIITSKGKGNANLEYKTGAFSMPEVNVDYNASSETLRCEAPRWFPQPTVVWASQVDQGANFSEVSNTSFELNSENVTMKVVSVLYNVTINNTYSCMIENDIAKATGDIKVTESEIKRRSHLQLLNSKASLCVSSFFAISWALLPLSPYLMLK
Description: flow cytometry, LPS-stimulated human PBMCs. On the procedure:
(§2) Peripheral blood mononuclear cells (PBMCs) contain monocytes which under stimulation would up-regulate B7S1 expression on cell surface. This example is to evaluate humanized anti-B7S1 antibody binding affinity on monocytes. Human buffy coat was diluted with PBS to according volume as twice as Ficoll (GE, 17-1440-02). The diluted buffy coat was layered gently on top of Ficoll and centrifuged at 2500 rpm for 40 min at 20° C. without brake. Carefully draw off PBMCs layer in between Ficoll and its transparent supernatant. PBS was added to 5 volumes of PBMCs and centrifuged at 1200 rpm for 10 min at 20° C. Discard supernatant and wash with PBS again. To eliminate platelets, centrifuge at 900 rpm for 8 min at 20° C. PBMCs were resuspended with culture medium (RPMI-1640 with 10% FBS and 1% PS), counted and aliquot to 96-well plate (5×10\hat{ }5 cells/well) with LPS added (100 ng/ml). After 24h incubation, cells were washed with PBS twice. For live/dead stain, LIVE/DEAD® Fixable Aqua Dead Cell Stain Kit (Life technologies, L34957) was applied (1:1000 in PBS, 100 ul/well) to cells, and incubated at 4° C. for 10 min FACS buffer (2% FBS in PBS, 100 ul/well) was added to each well to terminate staining. Centrifuge (1200 rpm, 5 min) to discard supernatant and wash with FACS buffer once. Humanized anti-B7S1 antibodies were diluted in FACS buffer to according concentrations and added to each well (100 ul/well). Cells were incubated at 4° C. for 30 min, and then, washed twice with FACS buffer. […] Cells were incubated at 4° C. for 30 min, and then, washed twice with FACS buffer. Cells were tested on flow cytometry. […] The mAbs meet the requirements for binding profile of antibody drugs.
(In general: In flow cytometry, cells or beads pass a laser one at a time.)

Assay [5] addresses T2, human B7S1-his (Sinobiological, …). Description: SPR, Biacore 8K, antibody captured by Fc, B7S1 as analyte. On the procedure: FIG. 1. Experimental results of Surface Plasmon Resonance (SPR) binding analysis using Biacore 8K. The data of dissociation (kd) and association (ka) rate constants were obtained using Biacore 8K evaluation software. The equilibrium dissociation constants (KD) were calculated from the ratio of kd over ka.
In addition, the affinity of the above mAbs was further analyzed by Surface Plasmon Resonance (SPR) binding analysis using Biacore 8K. SPR is the resonant oscillation of conduction electrons at the interface between negative and positive permittivity material stimulated by incident light. Antibodies were immobilized on the sensor chip through Fc capture method. Human B7S1 (Sinobiological, cat#10738-H08H-100) was used as the analyte. The data of dissociation (kd) and association (ka) rate constants were obtained using Biacore 8K evaluation software. The equilibrium dissociation constants (KD) were calculated from the ratio of kd over ka.
(Surface plasmon resonance follows binding to a sensor surface in real time, without labels.)

For assay [6], the target named is T4, human B7S1 (NCBI Reference Sequence: …). Description: flow cytometry on LPS-stimulated human PBMCs (percentage of live PBMC stained), detection with Alexa Fluor 594 goat anti-human IgG. On the procedure: as §2
The target is the same in assay [7]. Briefly: flow cytometry (mean fluorescence intensity) on BaF3 cells expressing human B7S1, detection with Alexa Fluor 594 goat anti-human IgG. On the procedure: To evaluate anti-B7S1 antibody binding affinity on cell surface over expressing B7S1, human B7S1 (NCBI Reference Sequence: NP_078902.2) was constructed on BaF3 cell line. The cells were washed with PBS and aliquot to 96-well U-bottom plate with a cell density of 5×10\hat{ }5 cells/well. For live/dead stain, LIVE/DEAD® Fixable Aqua Dead Cell Stain Kit (Life technologies, L34957) was applied (1:1000 in PBS, 100 ul/well) to cells, and incubated at 4° C. for 10 min FACS buffer (2% FBS in PBS, 100 ul/well) was added to each well to terminate staining. Centrifuge (1200 rpm, 5 min) to discard supernatant and wash with FACS buffer once. Humanized anti-B7S1 antibodies were diluted in FACS buffer to according concentrations and added to each well (100 ul/well). Cells were incubated at 4° C. for 30 min, and then, washed twice with FACS buffer. […] Cells were incubated at 4° C. for 30 min, and then, washed twice with FACS buffer. […] For example, the binding EC₅₀ of the tested mAbs is in the sub nM range.

Where a chain is given by its changes, count along the chain named. Bounds are passed on as bounds.

B1: humanized anti-B7S1 antibody VH1-5/VL4-5 (antibody, V domains shown)
VH: QVQLVQSGAEVKKPGASVKVSCKASGYTFTSYWMHWVKQAPGQGLEWIAAIYPGNSDTDYNQKFKGKAKITAVTSTSTAYMELSSLRSEDTAVYYCTTTVAHYFDYWGQGTMVTVSS
VL: EIVMTQSPATLSLSPGERATLTCKASQDVSFAVAWYQQKPGQAPKLLISSASYRYTGVPDRFSGSGSGTDFTLTISSLEPEDFAVYYCQQHYNTPLTFGGGTKVEIK
notes: Tested as a whole antibody with a human Fc (detected with anti-human IgG, Fc capture in SPR)
In the case of B1, the concentration for a half-maximal effect (EC50) (in general, the concentration needed to bring the measured effect to its halfway point) in assay [1] was 1.09 nM; in assay [2], 0.52 nM; in assay [3], 8.09 nM; in assay [4] it was below 3 nM; in assay [6] it was 2.6 nM; in assay [7], 3.8 nM. Also, in assay [5], the affinity, expressed as Kd, was 3.24 nM. Further, the koff (usually a measure of how fast the partners let go of each other) in assay [5] stood at 0.000265 s⁻¹. Further, in assay [5], the kon (usually a measure of how fast the partners come together) amounted to 81700 M⁻¹ s⁻¹.

B2: humanized anti-B7S1 antibody VH1-5/VL4-4 (antibody, V domains shown)
VH: B1 VH
VL: B1 VL with M4L, T22S, K45R
notes: as for B1
Consider B2, for which the EC50 in assay [1] is 0.88 nM; in assay [2], 0.4 nM; in assay [3] it was 3.26 nM; in assay [4] it was below 3 nM; in assay [6] it was 3 nM; in assay [7] it was 3.1 nM. Binding in assay [5] was characterised by a dissociation constant (Kd) of 1.86 nM. Moreover, the off-rate (koff) in assay [5] amounted to 0.000187 s⁻¹. In addition, the on-rate (kon) in assay [5] amounted to 101000 M⁻¹ s⁻¹.

B3: humanized anti-B7S1 antibody VH1-4/VL4-5 (antibody, V domains shown)
VH: B1 VH with K38R, A79V
VL: B1 VL
notes: as for B1
Take B3: the EC50 is 1.59 nM in assay [1]; 0.25 nM in assay [2]; 7.82 nM in assay [3]; below 3 nM in assay [4]; 2.4 nM in assay [6]; 4.2 nM in assay [7]. Further, the dissociation constant Kd (in general, the equilibrium constant for the complex coming apart) in assay [5] was 4.08 nM. The same molecule registered a koff in assay [5] of 0.000436 s⁻¹. In assay [5], the kon amounted to 107000 M⁻¹ s⁻¹.
